Patent US20220017591A1 (AstraZeneca / MedImmune, published 2022)
Residue numbers refer to the chain shown, from its start.

Experiments:
Assay in all cases: cell-based or functional assay
mouse RXFP1 = target: T1, mouse RXFP1 (mouse, UniProt Q6R6I7 1-758)
T1 sequence (looked up): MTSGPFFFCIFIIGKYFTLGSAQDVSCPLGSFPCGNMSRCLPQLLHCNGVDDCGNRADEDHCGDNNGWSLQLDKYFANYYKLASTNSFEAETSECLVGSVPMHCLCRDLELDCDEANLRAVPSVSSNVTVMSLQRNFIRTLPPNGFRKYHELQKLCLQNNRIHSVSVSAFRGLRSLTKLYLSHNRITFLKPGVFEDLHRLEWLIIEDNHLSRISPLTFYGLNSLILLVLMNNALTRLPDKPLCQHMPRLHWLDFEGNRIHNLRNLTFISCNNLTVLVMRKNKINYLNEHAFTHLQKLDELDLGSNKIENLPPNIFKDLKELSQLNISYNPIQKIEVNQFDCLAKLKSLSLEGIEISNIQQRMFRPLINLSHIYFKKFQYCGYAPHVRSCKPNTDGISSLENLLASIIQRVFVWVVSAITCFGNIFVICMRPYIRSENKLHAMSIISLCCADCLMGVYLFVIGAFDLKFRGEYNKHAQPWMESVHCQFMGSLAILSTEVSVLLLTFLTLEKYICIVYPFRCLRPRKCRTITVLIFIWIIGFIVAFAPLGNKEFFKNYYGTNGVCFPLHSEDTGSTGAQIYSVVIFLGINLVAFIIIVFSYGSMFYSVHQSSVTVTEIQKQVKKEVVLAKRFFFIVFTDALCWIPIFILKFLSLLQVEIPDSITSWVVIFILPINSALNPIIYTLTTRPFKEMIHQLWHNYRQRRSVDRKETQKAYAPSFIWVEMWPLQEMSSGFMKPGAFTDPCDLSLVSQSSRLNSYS

human RXFP2 = human RXFP2 (human, UniProt Q8WXD0 1-754)
human RXFP1 = target: T2, human RXFP1 (human, UniProt Q9HBX9 1-757)
T2 sequence (looked up): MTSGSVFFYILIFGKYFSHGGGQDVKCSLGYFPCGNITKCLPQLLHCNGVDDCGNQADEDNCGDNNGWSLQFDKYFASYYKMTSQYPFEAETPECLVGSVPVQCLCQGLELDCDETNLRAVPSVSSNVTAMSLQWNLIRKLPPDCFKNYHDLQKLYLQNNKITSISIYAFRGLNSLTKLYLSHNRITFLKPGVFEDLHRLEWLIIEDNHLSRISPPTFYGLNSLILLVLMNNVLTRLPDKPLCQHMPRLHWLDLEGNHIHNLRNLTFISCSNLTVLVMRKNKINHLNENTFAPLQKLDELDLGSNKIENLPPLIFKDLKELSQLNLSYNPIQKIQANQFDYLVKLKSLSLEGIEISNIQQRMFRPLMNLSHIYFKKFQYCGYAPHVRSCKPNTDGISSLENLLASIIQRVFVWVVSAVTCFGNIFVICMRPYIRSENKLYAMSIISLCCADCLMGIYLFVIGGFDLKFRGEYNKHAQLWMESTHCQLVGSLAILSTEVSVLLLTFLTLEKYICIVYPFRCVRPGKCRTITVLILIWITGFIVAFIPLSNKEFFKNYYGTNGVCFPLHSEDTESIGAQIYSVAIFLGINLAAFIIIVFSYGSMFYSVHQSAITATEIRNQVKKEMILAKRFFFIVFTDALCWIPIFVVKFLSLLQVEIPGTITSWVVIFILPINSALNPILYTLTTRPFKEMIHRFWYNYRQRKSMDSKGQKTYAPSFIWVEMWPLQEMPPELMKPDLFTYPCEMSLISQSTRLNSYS

Chain of human RXFP2 (Q8WXD0 whole entry): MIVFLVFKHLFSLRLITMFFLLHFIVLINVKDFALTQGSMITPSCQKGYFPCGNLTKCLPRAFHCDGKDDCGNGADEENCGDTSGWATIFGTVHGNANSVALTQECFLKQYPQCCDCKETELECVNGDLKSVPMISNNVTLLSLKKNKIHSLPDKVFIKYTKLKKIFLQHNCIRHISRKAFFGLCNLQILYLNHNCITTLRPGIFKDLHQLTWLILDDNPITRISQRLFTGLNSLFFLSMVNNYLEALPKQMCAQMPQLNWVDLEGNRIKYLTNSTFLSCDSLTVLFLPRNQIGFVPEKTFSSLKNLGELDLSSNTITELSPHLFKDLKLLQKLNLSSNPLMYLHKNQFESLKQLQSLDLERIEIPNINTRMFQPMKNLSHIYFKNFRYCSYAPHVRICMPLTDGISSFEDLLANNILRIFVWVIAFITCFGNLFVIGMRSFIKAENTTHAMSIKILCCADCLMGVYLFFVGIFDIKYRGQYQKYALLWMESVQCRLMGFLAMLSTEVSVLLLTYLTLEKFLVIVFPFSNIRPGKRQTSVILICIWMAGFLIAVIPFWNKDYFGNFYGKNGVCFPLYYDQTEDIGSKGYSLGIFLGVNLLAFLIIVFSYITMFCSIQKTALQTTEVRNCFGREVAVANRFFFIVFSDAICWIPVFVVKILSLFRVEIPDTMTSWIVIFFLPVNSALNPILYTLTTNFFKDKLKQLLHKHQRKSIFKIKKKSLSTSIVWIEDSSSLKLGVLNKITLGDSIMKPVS

B1: RELAX0082 (Fc fusion)
chain 1: DKTHTCPPCPAPEFEGGPSVFLFPPKPKDTLMISRTPEVTCVVVDVSHEDPEVKFNWYVDGVEVHNAKTKPREEQYNSTYRVVSVLTVLHQDWLNGKEYKCKVSNKALPASIEKTISKAKGQPREPQVYTLPPCREEMTKNQVSLWCLVKGFYPSDIAVEWESNGQPENNYKTTPPVLDSDGSFFLYSKLTVDKSRWQQGNVFSCSVMHEALHNHYTQKSLSLSPGGGGGSGGGGGSQLYSALANKCCHVGCTKRSLARFC
chain 2: DKTHTCPPCPAPEFEGGPSVFLFPPKPKDTLMISRTPEVTCVVVDVSHEDPEVKFNWYVDGVEVHNAKTKPREEQYNSTYRVVSVLTVLHQDWLNGKEYKCKVSNKALPASIEKTISKAKGQPREPQVCTLPPSREEMTKNQVSLSCAVKGFYPSDIAVEWESNGQPENNYKTTPPVLDSDGSFFLVSKLTVDKSRWQQGNVFSCSVMHEALHNHYTQKSLSLSPGGGGGSGGGGGSSWMEEVIKLCGRELVRAQIAICGMSTWS
With B1 the “EC50 mRXFP1 (M), cAMP assay” value (mouse RXFP1) was 4.9e-11 M, the “EC50 hRXFP2 (M), cAMP assay” value (human RXFP2) was 3.81e-08 M and the “EC50 hRXFP1 (M), cAMP assay” value (human RXFP1) was 5.68e-11 M.

B2: RELAX0055 (Fc fusion)
chain 1: B1 chain 1 with G227A, G228P, G229A, G230P, S231A, G232P, G233A, G234P, G235A
chain 2: B1 chain 2 with G227A, G228P, G229A, G230P, S231A, G232P, G233A, G234P, G235A
In the case of B2, the “EC50 mRXFP1 (M), cAMP assay” value (mouse RXFP1) is reported as 1.51e-11 M, the “EC50 hRXFP2 (M), cAMP assay” value (human RXFP2) is reported as 3.39e-08 M and the “EC50 hRXFP1 (M), cAMP assay” value (human RXFP1) is reported as 1.88e-11 M.

B3: RELAX0081 (Fc fusion)
chain 1: DKTHTCPPCPAPEFEGGPSVFLFPPKPKDTLMISRTPEVTCVVVDVSHEDPEVKFNWYVDGVEVHNAKTKPREEQYNSTYRVVSVLTVLHQDWLNGKEYKCKVSNKALPASIEKTISKAKGQPREPQVYTLPPCREEMTKNQVSLWCLVKGFYPSDIAVEWESNGQPENNYKTTPPVLDSDGSFFLYSKLTVDKSRWQQGNVFSCSVMHEALHNHYTQKSLSLSPGGGGGSGGGGSGGGGGSQLYSALANKCCHVGCTKRSLARFC
chain 2: DKTHTCPPCPAPEFEGGPSVFLFPPKPKDTLMISRTPEVTCVVVDVSHEDPEVKFNWYVDGVEVHNAKTKPREEQYNSTYRVVSVLTVLHQDWLNGKEYKCKVSNKALPASIEKTISKAKGQPREPQVCTLPPSREEMTKNQVSLSCAVKGFYPSDIAVEWESNGQPENNYKTTPPVLDSDGSFFLVSKLTVDKSRWQQGNVFSCSVMHEALHNHYTQKSLSLSPGGGGGSGGGGSGGGGGSSWMEEVIKLCGRELVRAQIAICGMSTWS
B3 was tested, and the “EC50 mRXFP1 (M), cAMP assay” value (mouse RXFP1) was 4.73e-11 M, the “EC50 hRXFP2 (M), cAMP assay” value (human RXFP2) was 4.92e-08 M and the “EC50 hRXFP1 (M), cAMP assay” value (human RXFP1) was 4.51e-11 M.

B4: RELAX0109 (Fc fusion)
chain 1: B3 chain 1
chain 2: DKTHTCPPCPAPEFEGGPSVFLFPPKPKDTLMISRTPEVTCVVVDVSHEDPEVKFNWYVDGVEVHNAKTKPREEQYNSTYRVVSVLTVLHQDWLNGKEYKCKVSNKALPASIEKTISKAKGQPREPQVYTLPPCREEMTKNQVSLWCLVKGFYPSDIAVEWESNGQPENNYKTTPPVLDSDGSFFLYSKLTVDKSRWQQGNVFSCSVMHEALHNHYTQKSLSLSPGAAPAPAPAPAPAPAGSSWMEEVIKLCGRELVRAQIAICGMSTWS
With B4 the “EC50 mRXFP1 (M), cAMP assay” value (mouse RXFP1) was 8.22e-10 M and the “EC50 hRXFP1 (M), cAMP assay” value (human RXFP1) was 1.72e-09 M.

B5: RELAX0054 (Fc fusion)
chain 1: DKTHTCPPCPAPEFEGGPSVFLFPPKPKDTLMISRTPEVTCVVVDVSHEDPEVKFNWYVDGVEVHNAKTKPREEQYNSTYRVVSVLTVLHQDWLNGKEYKCKVSNKALPASIEKTISKAKGQPREPQVCTLPPSREEMTKNQVSLSCAVKGFYPSDIAVEWESNGQPENNYKTTPPVLDSDGSFFLVSKLTVDKSRWQQGNVFSCSVMHEALHNHYTQKSLSLSPGAAPAPAPAPAPAPAGSQLYSALANKCCHVGCTKRSLARFC
chain 2: B4 chain 2
For B5, the “EC50 mRXFP1 (M), cAMP assay” value (mouse RXFP1) was 1.59e-11 M, the “EC50 hRXFP2 (M), cAMP assay” value (human RXFP2) was 1.53e-08 M and the “EC50 hRXFP1 (M), cAMP assay” value (human RXFP1) was 2.89e-11 M.

B6: RELAX0083 (Fc fusion)
chain 1: DKTHTCPPCPAPEFEGGPSVFLFPPKPKDTLMISRTPEVTCVVVDVSHEDPEVKFNWYVDGVEVHNAKTKPREEQYNSTYRVVSVLTVLHQDWLNGKEYKCKVSNKALPASIEKTISKAKGQPREPQVYTLPPCREEMTKNQVSLWCLVKGFYPSDIAVEWESNGQPENNYKTTPPVLDSDGSFFLYSKLTVDKSRWQQGNVFSCSVMHEALHNHYTQKSLSLSPGGGGGGSQLYSALANKCCHVGCTKRSLARFC
chain 2: DKTHTCPPCPAPEFEGGPSVFLFPPKPKDTLMISRTPEVTCVVVDVSHEDPEVKFNWYVDGVEVHNAKTKPREEQYNSTYRVVSVLTVLHQDWLNGKEYKCKVSNKALPASIEKTISKAKGQPREPQVCTLPPSREEMTKNQVSLSCAVKGFYPSDIAVEWESNGQPENNYKTTPPVLDSDGSFFLVSKLTVDKSRWQQGNVFSCSVMHEALHNHYTQKSLSLSPGGGGGGSSWMEEVIKLCGRELVRAQIAICGMSTWS
For B6, the “EC50 mRXFP1 (M), cAMP assay” value (mouse RXFP1) was 1.34e-11 M, the “EC50 hRXFP2 (M), cAMP assay” value (human RXFP2) was 2.42e-08 M and the “EC50 hRXFP1 (M), cAMP assay” value (human RXFP1) was 2.81e-11 M.

B7: RELAX0056 (Fc fusion)
chain 1: DKTHTCPPCPAPEFEGGPSVFLFPPKPKDTLMISRTPEVTCVVVDVSHEDPEVKFNWYVDGVEVHNAKTKPREEQYNSTYRVVSVLTVLHQDWLNGKEYKCKVSNKALPASIEKTISKAKGQPREPQVYTLPPCREEMTKNQVSLWCLVKGFYPSDIAVEWESNGQPENNYKTTPPVLDSDGSFFLYSKLTVDKSRWQQGNVFSCSVMHEALHNHYTQKSLSLSPGAPAPAPAPAPAPAPAPAPAGSQLYSALANKCCHVGCTKRSLARFC
chain 2: DKTHTCPPCPAPEFEGGPSVFLFPPKPKDTLMISRTPEVTCVVVDVSHEDPEVKFNWYVDGVEVHNAKTKPREEQYNSTYRVVSVLTVLHQDWLNGKEYKCKVSNKALPASIEKTISKAKGQPREPQVCTLPPSREEMTKNQVSLSCAVKGFYPSDIAVEWESNGQPENNYKTTPPVLDSDGSFFLVSKLTVDKSRWQQGNVFSCSVMHEALHNHYTQKSLSLSPGAPAPAPAPAPAPAPAPAPAGSSWMEEVIKLCGRELVRAQIAICGMSTWS
In the case of B7, the “EC50 mRXFP1 (M), cAMP assay” value (mouse RXFP1) is reported as 3.27e-11 M, the “EC50 hRXFP2 (M), cAMP assay” value (human RXFP2) is reported as 6.48e-08 M and the “EC50 hRXFP1 (M), cAMP assay” value (human RXFP1) is reported as 3.87e-11 M.

B8: RELAX0084 (Fc fusion)
chain 1: B7 chain 1
chain 2: DKTHTCPPCPAPEFEGGPSVFLFPPKPKDTLMISRTPEVTCVVVDVSHEDPEVKFNWYVDGVEVHNAKTKPREEQYNSTYRVVSVLTVLHQDWLNGKEYKCKVSNKALPASIEKTISKAKGQPREPQVCTLPPSREEMTKNQVSLSCAVKGFYPSDIAVEWESNGQPENNYKTTPPVLDSDGSFFLVSKLTVDKSRWQQGNVFSCSVMHEALHNHYTQKSLSLSPGGGGGSGGGGSGGGGSGGGGGSSWMEEVIKLCGRELVRAQIAICGMSTWS
For B8, the “EC50 mRXFP1 (M), cAMP assay” value (mouse RXFP1) was 3.48e-11 M, the “EC50 hRXFP2 (M), cAMP assay” value (human RXFP2) was 1.2e-08 M and the “EC50 hRXFP1 (M), cAMP assay” value (human RXFP1) was 5.34e-11 M.
